Assay results from patent US20030083261A1, “Class of 12mer peptides that inhibit the function of the mitotic check point protein Mad2” (priority 2001, published 2003).
Entries after “also recorded” stand apart in the source; their conditions may differ. No end group written: not given here.

Tests used:
[1] = in vivo; cited from earlier work
[2] = oral tablet; cited from earlier work
Mad2 [3] = biological target: T1, Mad2 (Homo sapiens, UniProt Q13257); experiment: Aggregation of Mad2-peptide complex over time (HSQC after incubation at 30° C.); design: made in house; conditions: incubation at 30° C. / extended periods of time
Procedure: To confirm if the complex aggregated over time, an HSQC spectrum was acquired on a freshly prepared ^15N-Mad2-Cdc20P1 sample. This sample was then incubated at 30° C. (the temperature for NMR data acquisition) for 48 hours and another HSQC was acquired.

Mad2 [4] = biological target: T1, Mad2; experiment: 1H-15N HSQC NMR binding and competition on 15N-labeled Mad2; design: made in house; conditions: for binding to Mad2: change of the HSQC spectrum of Mad2: addition of peptide to 15N-labeled Mad2; for relative affinity toward Mad2 by competition: two peptides added to Mad2, HSQC spectrum
Procedure: To determine whether MBP1 and Cdc20 bind to the same site on Mad2. Mad2 was pre-incubated with an excess amount of Cdc20P1. MBP1 was then added to the pre-formed Mad2-Cdc20P1 complex. HSQC spectra were taken before and after the addition of MBP1. Prior to the addition of MBP1, Mad2 formed a complex with Cdc20P1 as indicated by the HSQC spectrum. After the addition of MBP1, the HSQC spectrum of the resulting sample looked identical to that of the Mad2-MBP1 complex. Therefore, MBP1 effectively displaced Cdc20P1 away from Mad2 and formed a complex with Mad2 in the presence of Cdc20P1. […] However, it is also conceivable that MBP1 affects the binding of Cdc20P1 to Mad2 in an allosteric fashion.
The relative affinity of Mad2-MBP2 was compared to Mad2-Cdc20P1 and Mad2-MBP1. […] However, when both MBP1 and MBP2 were added to Mad2, the HSQC spectrum of the resulting sample contained two sets of signals of roughly equal intensity: one set of signals belonged to Mad2-MBP1 while the other set was from Mad2-MBP2. […] Furthermore, the exchange between these two bound forms of Mad2 occurs with a rate that is slow on the NMR time scale.

Mad2 [5] = biological target: T1, Mad2; experiment: ELISA-type assay of phage display clones on Mad2; assay type: binding; design: made in house; conditions: phage clone on Mad2
Text: Phage display library with Mad2 was screened and several clones were sequenced and analyzed using ELISA-type assays.
By coincidence, the MBP1 sequence was isolated again and the MBP1 phage clone gave an ELISA reading of 0.62 (OD at 410 nm). […] The peptides with higher ELISA readings than MBP1 are synthesized. As these peptides, including MBP1, contain tryptophan in their sequences, tryptophan fluorescence assay cannot be used to measure the affinities of these peptides toward Mad2. Alternative assays are developed and used.

HeLa cells = experiment: Mitotic arrest by GFP-Mad2 overexpression in HeLa cells; assay type: cell-based; conditions: co-transfection of plasmid encoding the peptide; cell shape, DNA-staining, FACS
Text: Overexpression of Mad2 in HeLa cells causes a prolonged mitotic arrest because Mad2 at elevated levels inhibits APCCdc20 in these cells in the absence of spindle damage. […] The cells round up when they undergo mitosis while the interphase cells are flat. […] The cell cycle status of the transfected cells was also confirmed by DNA-staining and by FACS analysis.

Mad2 [6] = biological target: T1, Mad2; experiment: In vitro APC ubiquitination assay (Mad2 inhibition of APC^Cdc20, cyclin B1 substrate); assay type: biochemical; conditions: peptide at 100 μM
Text: To determine whether binding of MBP1 affects the association of Mad2 with the intact Cdc20, the inventors performed an in vitro APC ubiquitination assay. In this assay, a Myc-epitope tagged N-terminal fragment of human cyclin B1 was used as the substrate. Purified recombinant human E1, UbcH10 (E2), ATP, and ubiquitin were also included (FIG. 3A). In the presence of active APC (E3), ubiquitin was ligated to the lysine side chains of cyclin B1, forming cyclin-ubiquitin conjugates with isopeptide linkages. The reaction mixture was then analyzed by SDS-PAGE followed by immuno-blotting with an anti-Myc antibody. The appearance and the intensity of the higher molecular weight bands were then used as the criteria for the activity of APC.
Addition of the APC activator, Cdc20, greatly stimulated the activity of APC. […] Therefore, MBP1 can block the biochemical function of Mad2 in vitro.

[7] = in words; cited from earlier work
[8] = oral administration; cited from earlier work
[9] = cited from earlier work
Mad2 [10] = biological target: T1, Mad2; experiment: Tryptophan fluorescence titration of Mad2 with peptide; assay type: binding; design: made in house; conditions: addition of peptide to saturation
Procedure: Binding affinity between Mad2 and Cdc20P1 was determined. Two tryptophan residues are located in the proximity of the C-terminal tail of Mad2 that is involved in binding to Cdc20. Thus, binding of Cdc20P1 may affect the tryptophan fluorescence of Mad2. The intensity of tryptophan fluorescence of Mad2 was indeed reduced by 70% upon the addition of Cdc20P1 to saturation. […] This is consistent with the fact that binding of Cdc20P1 to Mad2 occurs with an intermediate exchange rate on the NMR time scale. The relative low affinity of Cdc20P1 toward Mad2 may also be the cause of the slow aggregation phenomenon of the Mad2-Cdc20P1 complex. Thus, Mad2 ligands with higher affinity for Mad2 are required for structural studies.

[11] = biological target: T2, Mad2 protein (mitotic checkpoint protein Mad2, purified recombinant) (UniProt Q13257 1-205); experiment: tryptophan fluorescence titration of Mad2 with Cdc20P1
T2 construct: also called 15N-Mad2; free Mad2
T2 sequence (Q13257 whole entry): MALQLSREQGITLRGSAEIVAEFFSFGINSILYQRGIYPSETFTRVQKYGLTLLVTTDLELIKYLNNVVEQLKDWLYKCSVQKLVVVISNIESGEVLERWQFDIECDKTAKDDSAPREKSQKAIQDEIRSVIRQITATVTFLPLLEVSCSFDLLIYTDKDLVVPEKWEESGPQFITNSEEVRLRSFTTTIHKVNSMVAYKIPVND

T1 sequence (Q13257 whole entry): as above

O.O=P1(N(CCCl)CCCl)NCCCO1 (stereo not shown) [Cyclophosphamide, 2H-1,3,2-Oxazaphosphorin-2-amine, N,N-bis(2-chloroethyl)tetrahydro-, 2-oxide, monohydrate]
stability in the gastrointestinal tract [1]: stable in the gastrointestinal tract

O=C(O)CCCc1ccc(N(CCCl)CCCl)cc1 [Chlorambucil, 4-[bis(2-chlorethyl)amino] benzenebutanoic acid]
absorption from the gastrointestinal tract [2]: rapidly and completely absorbed from the gastrointestinal tract

MBP2: Mad2-binding peptide from phage display sharing strong sequence similarity with Cdc20P1, no tryptophans; probably DARIIKLPVPKP (SEQ ID NO:3)
aggregation of the Mad2-peptide complex (Mad2 [3]): did not form high molecular weight aggregates
binding to Mad2: change of the HSQC spectrum of Mad2 (Mad2 [4]): induced dramatic chemical shift changes of the majority of Mad2 signals
relative affinity toward Mad2 by competition (Mad2 [4]): binds to Mad2 with a higher affinity than Cdc20P1; also recorded: MBP1 and MBP2 bind to Mad2 with very similar affinities

GWWHIPSPVLRP [clone 11]
ELISA reading (Mad2 [5]): 1.37 OD at 410 nm

MBP1: 12-residue Mad2-binding peptide identified by phage display, contains tryptophan; probably SWYSYPPPQRAV (SEQ ID NO:2)
ELISA reading (Mad2 [5]): 0.62 OD at 410 nm
effect on mitotic arrest caused by GFP-Mad2 overexpression (HeLa cells): counteracted the action of Mad2; also recorded: did not arrest in mitosis
aggregation of the Mad2-peptide complex (Mad2 [3]): stable for extended periods of time and did not aggregate
binding to Mad2: change of the HSQC spectrum of Mad2 (Mad2 [4]): caused dramatic chemical shift changes of the majority of signals
relative affinity toward Mad2 by competition (Mad2 [4]): affinity of MBP1 toward Mad2 is higher than that of Cdc20P1; also recorded: MBP1 and MBP2 bind to Mad2 with very similar affinities
effect on the ability of Mad2 to inhibit the ubiquitination activity of APC^Cdc20 (Mad2 [6]): blocked the ability of Mad2 to inhibit APC^Cdc20; also recorded: prevented Mad2 from inhibiting APCCdc20

N[C@@H](Cc1ccc(N(CCCl)CCCl)cc1)C(=O)O [Melphalan, 4-[bis(2-chloroethyl)amino]-L-phenylalanine]
solubility in water [7]: insoluble in water
fraction of patients with multiple myeloma showing a favorable response [8]: one third to one half

O=NN(CCCl)C(=O)NC1CCCCC1 [Lomustine, 1-(2-chloro-ethyl)-3-cyclohexyl-1 nitrosourea]
tissue levels versus plasma levels ([9]; 15 minutes after intravenous administration): comparable to plasma levels
radioactivity excreted in the form of degradation products ([9]; within 24 hours, oral radioactive lomustine about 30 mg/m^2 to 100 mg/m^2): about half

O=NN(CCCl)C(=O)NCCCl [Carmustine, 1,3 bis (2-chloroethyl)-1-nitrosourea]
solubility in water [7]: poorly soluble in water

DVEEAKILRLSGKP [Cdc20P1]
reduction of intensity of tryptophan fluorescence of Mad2 (Mad2 [10]): 70%

B1: Cdc20P1 (14-amino acid peptide corresponding to residues 124-137 of Cdc20) (peptide, UniProt Q12834 124-137, looked up)
peptide: DVEEAKILRLSGKP
notes: also called Cdc20P1 peptide; 15N-Cdc20P1
Kd [11]: 3.6 µM
